Paper PMC7115876 (Nature, 2020)

Target: human β-arrestin 1 (L68C, R169E) (human, UniProt P49407 2-418, L68C | R169E)
Experiment: cryo-EM structure

Chain of human β-arrestin 1 (L68C, R169E) (P49407 2-418 L68C/R169E): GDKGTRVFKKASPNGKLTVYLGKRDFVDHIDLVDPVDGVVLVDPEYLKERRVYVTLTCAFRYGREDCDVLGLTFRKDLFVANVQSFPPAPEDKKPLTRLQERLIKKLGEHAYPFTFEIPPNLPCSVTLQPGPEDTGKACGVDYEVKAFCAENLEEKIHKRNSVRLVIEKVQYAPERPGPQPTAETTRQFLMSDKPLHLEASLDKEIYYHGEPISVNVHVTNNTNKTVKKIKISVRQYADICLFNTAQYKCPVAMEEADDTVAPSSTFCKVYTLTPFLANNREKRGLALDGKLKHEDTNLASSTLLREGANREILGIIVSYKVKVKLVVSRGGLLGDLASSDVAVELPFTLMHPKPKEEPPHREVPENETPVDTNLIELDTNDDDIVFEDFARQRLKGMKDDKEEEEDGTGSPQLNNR

binding result: binds
B1: β1AR6P (turkey β1AR construct β83 ligated by sortase A to the phosphopeptide V2R6P) (receptor)
chain: not shown
modifications: six phosphoresidues in the V2R6P part: GGGDE[pS]A[pT][pT]A[pS][pS][pS]LAKDTSS
